Assay results reported in patent publication US20150344570A1 (published 2015).

T1: FcγRIIb (human, UniProt P31994 43-217)
T1 construct: extracellular domain; Soluble extracellular domain with C-terminal His tag, used as analyte; also called FcgRIIb; CD32B; not shown: His tag at the C terminus
T1 sequence (looked up): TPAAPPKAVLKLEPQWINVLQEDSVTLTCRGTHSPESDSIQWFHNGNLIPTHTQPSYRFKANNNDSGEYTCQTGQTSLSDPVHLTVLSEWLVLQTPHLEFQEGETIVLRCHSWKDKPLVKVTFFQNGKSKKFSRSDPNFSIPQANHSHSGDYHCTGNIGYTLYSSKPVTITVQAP

T2: FcγRIIb extracellular domain with C-terminal His tag (human, UniProt P31994 43-217)
T2 construct: extracellular domain; also called 2b; FcgRIIb; not shown: His tag at the C terminus
T2 sequence (looked up): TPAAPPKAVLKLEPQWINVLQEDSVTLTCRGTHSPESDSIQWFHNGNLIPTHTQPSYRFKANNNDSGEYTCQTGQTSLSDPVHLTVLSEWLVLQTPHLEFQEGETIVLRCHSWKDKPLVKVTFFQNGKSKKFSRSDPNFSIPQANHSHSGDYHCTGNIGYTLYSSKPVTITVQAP


Tests used:
FcγRIa = molecular target: T3, FcγRIa (human, UniProt P12314 16-292); experiment: SPR (Biacore), captured antibody, FcγR as analyte, relative binding
T3 construct: extracellular domain; Soluble extracellular domain with C-terminal His tag, used as analyte; also called FcgRI; CD64; not shown: His tag at the C terminus
T3 sequence (P12314 16-292): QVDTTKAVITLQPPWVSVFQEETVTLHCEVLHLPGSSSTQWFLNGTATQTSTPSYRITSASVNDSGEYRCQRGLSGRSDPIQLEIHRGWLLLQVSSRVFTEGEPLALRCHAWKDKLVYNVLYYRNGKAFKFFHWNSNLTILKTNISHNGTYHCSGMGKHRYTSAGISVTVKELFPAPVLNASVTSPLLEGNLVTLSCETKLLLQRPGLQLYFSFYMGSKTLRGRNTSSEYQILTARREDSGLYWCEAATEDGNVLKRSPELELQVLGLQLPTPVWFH

FcγRIIb = molecular target: T1, FcγRIIb; experiment: as above
[1] = molecular target: T4, FcγRIIIa extracellular domain with C-terminal His tag (human, UniProt P08637 17-208); experiment: SPR (Biacore), relative to GpH7-A5/GpH7-B3/GpL16-k0 = 100
T4 construct: extracellular domain; also called 3a; FcgRIIIa; not shown: His tag at the C terminus
T4 sequence (P08637 17-208): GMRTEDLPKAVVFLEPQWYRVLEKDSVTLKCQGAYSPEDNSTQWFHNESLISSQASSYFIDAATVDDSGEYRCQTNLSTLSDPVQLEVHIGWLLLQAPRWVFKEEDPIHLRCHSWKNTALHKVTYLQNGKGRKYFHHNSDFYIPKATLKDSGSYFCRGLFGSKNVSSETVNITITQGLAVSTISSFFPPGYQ

[2] = molecular target: T2, FcγRIIb extracellular domain with …; experiment: as above

Row | He/Con_1a (FcγRIa) | He/Con_2b (FcγRIIb) | He/Con_3a [1] | He/Con_2b [2] | Binder
1 | 112 % of GpH7-A5/GpH7-B3/GpL16-k0 | 69.2 % of GpH7-A5/GpH7-B3/GpL16-k0 |  |  | GpH7-A5/GpH7-B3 variant Y300_02A/GpL16-k0 (antibody, human IgG1, kappa, He Ab: mutation in one H chain only; also called He Ab) heavy 1: not shown heavy 2: not shown light: DIVMTQSPLSLPVTPGEPASISCQASESLVHSNRNTYLHWYLQKPGQSPQLLIYKVSNRFSGVPDRFSGSGSGTDFTLKISRVEAEDVGVYYCSQNTHVPPTFGQGTKVEIERTVAAPSVFIFPPSDEQLKSGTASVVCLLNNFYPREAKVQWKVDNALQSGNSQESVTEQDSKDSTYSLSSTLTLSKADYEKHKVYACEVTHQGLSSPVTKSFNRGEC
2 | 112 % of GpH7-A5/GpH7-B3/GpL16-k0 | 84.3 % of GpH7-A5/GpH7-B3/GpL16-k0 |  |  | GpH7-A5/GpH7-B3 variant Y300_06M/GpL16-k0 (antibody, human IgG1, kappa, He Ab: mutation in one H chain only; also called He Ab) heavy 1: not shown heavy 2: not shown light: DIVMTQSPLSLPVTPGEPASISCQASESLVHSNRNTYLHWYLQKPGQSPQLLIYKVSNRFSGVPDRFSGSGSGTDFTLKISRVEAEDVGVYYCSQNTHVPPTFGQGTKVEIERTVAAPSVFIFPPSDEQLKSGTASVVCLLNNFYPREAKVQWKVDNALQSGNSQESVTEQDSKDSTYSLSSTLTLSKADYEKHKVYACEVTHQGLSSPVTKSFNRGEC
3 |  |  | 92.3 % (control = 100) | 114 % (control = 100) | GpH7-A5/GpH7-B3 variant H268_03V/GpL16-k0 (antibody, human IgG1, kappa, IgG1, anti-glypican-3; also called He Ab) heavy 1: not shown heavy 2: not shown light: DIVMTQSPLSLPVTPGEPASISCQASESLVHSNRNTYLHWYLQKPGQSPQLLIYKVSNRFSGVPDRFSGSGSGTDFTLKISRVEAEDVGVYYCSQNTHVPPTFGQGTKVEIERTVAAPSVFIFPPSDEQLKSGTASVVCLLNNFYPREAKVQWKVDNALQSGNSQESVTEQDSKDSTYSLSSTLTLSKADYEKHKVYACEVTHQGLSSPVTKSFNRGEC
4 |  |  | 97.5 % (control = 100) | 106 % (control = 100) | GpH7-A5/GpH7-B3 variant H268_15Y/GpL16-k0 (antibody, human IgG1, kappa, IgG1, anti-glypican-3; also called He Ab) heavy 1: not shown heavy 2: not shown light: DIVMTQSPLSLPVTPGEPASISCQASESLVHSNRNTYLHWYLQKPGQSPQLLIYKVSNRFSGVPDRFSGSGSGTDFTLKISRVEAEDVGVYYCSQNTHVPPTFGQGTKVEIERTVAAPSVFIFPPSDEQLKSGTASVVCLLNNFYPREAKVQWKVDNALQSGNSQESVTEQDSKDSTYSLSSTLTLSKADYEKHKVYACEVTHQGLSSPVTKSFNRGEC
5 |  |  | 72.4 % (control = 100) | 116 % (control = 100) | GpH7-A5/GpH7-B3 variant A327_01G/GpL16-k0 (antibody, human IgG1, kappa, IgG1, anti-glypican-3; also called He Ab) heavy 1: not shown heavy 2: not shown light: DIVMTQSPLSLPVTPGEPASISCQASESLVHSNRNTYLHWYLQKPGQSPQLLIYKVSNRFSGVPDRFSGSGSGTDFTLKISRVEAEDVGVYYCSQNTHVPPTFGQGTKVEIERTVAAPSVFIFPPSDEQLKSGTASVVCLLNNFYPREAKVQWKVDNALQSGNSQESVTEQDSKDSTYSLSSTLTLSKADYEKHKVYACEVTHQGLSSPVTKSFNRGEC
6 | 108 % of GpH7-A5/GpH7-B3/GpL16-k0 | 74.5 % of GpH7-A5/GpH7-B3/GpL16-k0 |  |  | GpH7-A5/GpH7-B3 variant Y300_07I/GpL16-k0 (antibody, human IgG1, kappa, He Ab: mutation in one H chain only; also called He Ab) heavy 1: not shown heavy 2: not shown light: DIVMTQSPLSLPVTPGEPASISCQASESLVHSNRNTYLHWYLQKPGQSPQLLIYKVSNRFSGVPDRFSGSGSGTDFTLKISRVEAEDVGVYYCSQNTHVPPTFGQGTKVEIERTVAAPSVFIFPPSDEQLKSGTASVVCLLNNFYPREAKVQWKVDNALQSGNSQESVTEQDSKDSTYSLSSTLTLSKADYEKHKVYACEVTHQGLSSPVTKSFNRGEC
7 | 112 % of GpH7-A5/GpH7-B3/GpL16-k0 | 93.2 % of GpH7-A5/GpH7-B3/GpL16-k0 |  |  | GpH7-A5/GpH7-B3 variant Y300_09D/GpL16-k0 (antibody, human IgG1, kappa, He Ab: mutation in one H chain only; also called He Ab) heavy 1: not shown heavy 2: not shown light: DIVMTQSPLSLPVTPGEPASISCQASESLVHSNRNTYLHWYLQKPGQSPQLLIYKVSNRFSGVPDRFSGSGSGTDFTLKISRVEAEDVGVYYCSQNTHVPPTFGQGTKVEIERTVAAPSVFIFPPSDEQLKSGTASVVCLLNNFYPREAKVQWKVDNALQSGNSQESVTEQDSKDSTYSLSSTLTLSKADYEKHKVYACEVTHQGLSSPVTKSFNRGEC
8 | 105 % of GpH7-A5/GpH7-B3/GpL16-k0 | 41.2 % of GpH7-A5/GpH7-B3/GpL16-k0 |  |  | GpH7-A5/GpH7-B3 variant Y300_12R/GpL16-k0 (antibody, human IgG1, kappa, He Ab: mutation in one H chain only; also called He Ab) heavy 1: not shown heavy 2: not shown light: DIVMTQSPLSLPVTPGEPASISCQASESLVHSNRNTYLHWYLQKPGQSPQLLIYKVSNRFSGVPDRFSGSGSGTDFTLKISRVEAEDVGVYYCSQNTHVPPTFGQGTKVEIERTVAAPSVFIFPPSDEQLKSGTASVVCLLNNFYPREAKVQWKVDNALQSGNSQESVTEQDSKDSTYSLSSTLTLSKADYEKHKVYACEVTHQGLSSPVTKSFNRGEC
9 |  |  | 76.4 % (control = 100) | 116 % (control = 100) | GpH7-A5/GpH7-B3 variant H268_05P/GpL16-k0 (antibody, human IgG1, kappa, IgG1, anti-glypican-3; also called He Ab) heavy 1: not shown heavy 2: not shown light: DIVMTQSPLSLPVTPGEPASISCQASESLVHSNRNTYLHWYLQKPGQSPQLLIYKVSNRFSGVPDRFSGSGSGTDFTLKISRVEAEDVGVYYCSQNTHVPPTFGQGTKVEIERTVAAPSVFIFPPSDEQLKSGTASVVCLLNNFYPREAKVQWKVDNALQSGNSQESVTEQDSKDSTYSLSSTLTLSKADYEKHKVYACEVTHQGLSSPVTKSFNRGEC
